Assay results published in the Immune Epitope Database (IEDB).

Columns and labels:
HLA-A*02:01 = assay: IEDB peptide-MHC binding, purified MHC/competitive/fluorescence; filed as Kd, often an IC50 or EC50 that approximates it; ≥ and ≤ were set here for values at or beyond the usual limits of such assays
HLA-B*48:01 = assay: IEDB peptide-MHC binding, purified MHC/direct/fluorescence; filed as Kd, often an IC50 or EC50 that approximates it; ≥ and ≤ were set here for values at or beyond the usual limits of such assays
HLA-A*32:01 = assay: IEDB peptide-MHC binding, purified MHC/competitive/radioactivity; filed as Kd, often an IC50 or EC50 that approximates it; ≥ and ≤ were set here for values at or beyond the usual limits of such assays
HLA-A*26:01 = assay: as above
HLA-A*30:01 = assay: as above
HLA-A*30:02 = assay: as above
HLA-A*29:02 = assay: as above
HLA-A*01:01 = assay: as above
HLA-A*24:02 = assay: as above
HLA-A*23:01 = assay: as above
HLA-B*40:01 = assay: as above
HLA-B*27:05 = assay: IEDB peptide-MHC binding, purified MHC/direct/fluorescence; filed as Kd, often an IC50 or EC50 that approximates it; ≥ and ≤ were set here for values at or beyond the usual limits of such assays; conditions: source organism: Orthohantavirus hantanense
HLA-B*44:02 = assay: IEDB peptide-MHC binding, purified MHC/competitive/radioactivity; filed as Kd, often an IC50 or EC50 that approximates it; ≥ and ≤ were set here for values at or beyond the usual limits of such assays; conditions: source organism: Dengue virus 3 Martinique/1243/1999
HLA-B*44:03 = assay: as above; conditions: source organism: Dengue virus 3 Martinique/1243/1999
HLA-B*08:01 = assay: as above; conditions: source organism: Vaccinia virus WR
[1] = source organism: Vaccinia virus Copenhagen
[2] = source organism: Mammarenavirus guanaritoense
[3] = source organism: Mammarenavirus brazilense
[4] = source organism: SARS coronavirus Tor2
[5] = source organism: Dengue virus 3 Martinique/1243/1999
[6] = source organism: Vaccinia virus WR
[7] = source organism: Lymphocytic choriomeningitis virus (strain Armstrong)

AMLNGLIYV
Kd (HLA-A*02:01; source organism: Variola virus): 1.3 nM

AQAELDAAF
Kd (HLA-B*48:01; source organism: Salmonella enterica subsp. enterica serovar Paratyphi A str. ATCC 9150): 696 nM

AQDFQSLTI
Kd (HLA-A*32:01; [1]): 67.6 nM

AQVTCLKFL
Kd (HLA-B*48:01; source organism: Cryptosporidium parvum Iowa II): 1670 nM

CSKILDLCY
Kd (HLA-A*26:01; [2]): ≥ 54600 nM
Kd (HLA-A*32:01; [2]): ≥ 50900 nM
Kd (HLA-A*30:01; [2]): 14900 nM
Kd (HLA-A*30:02; [2]): 664 nM
Kd (HLA-A*29:02; [2]): 3620 nM
Kd (HLA-A*01:01; [2]): 53.1 nM

DDVARAWSL
Kd (HLA-B*48:01; source organism: Mycobacterium tuberculosis str. Haarlem): ≥ 20000 nM

DEALRGFLLY
Kd (HLA-A*26:01; [3]): ≥ 69700 nM
Kd (HLA-A*24:02; [3]): ≥ 37500 nM
Kd (HLA-A*30:02; [3]): ≥ 69700 nM
Kd (HLA-A*29:02; [3]): ≥ 59100 nM
Kd (HLA-A*01:01; [3]): 14800 nM
Kd (HLA-A*23:01; [3]): 5860 nM

DEEPMELDY
Kd (HLA-A*26:01; [4]): ≥ 73600 nM
Kd (HLA-A*24:02; [4]): ≥ 77600 nM
Kd (HLA-A*30:02; [4]): ≥ 42000 nM
Kd (HLA-A*29:02; [4]): 1130 nM
Kd (HLA-A*01:01; [4]): 2000 nM
Kd (HLA-A*23:01; [4]): ≥ 59000 nM

DHEFVDEFY
Kd (HLA-A*26:01; [4]): 13900 nM
Kd (HLA-A*24:02; [4]): ≥ 77600 nM
Kd (HLA-A*30:02; [4]): ≥ 22500 nM
Kd (HLA-A*29:02; [4]): 1170 nM
Kd (HLA-A*01:01; [4]): 262 nM
Kd (HLA-A*23:01; [4]): ≥ 66200 nM

DTVWEVQGY
Kd (HLA-A*26:01; [4]): 1.64 nM
Kd (HLA-A*24:02; [4]): ≥ 77600 nM
Kd (HLA-A*30:02; [4]): 1320 nM
Kd (HLA-A*29:02; [4]): 4250 nM
Kd (HLA-A*01:01; [4]): 8020 nM
Kd (HLA-A*23:01; [4]): ≥ 77800 nM

EEEEQTLTIL
Kd (HLA-B*40:01; source organism: Dengue virus 2 Jamaica/1409/1983): 10.4 nM

ELLNTPYCNY
Kd (HLA-A*26:01; [3]): 275 nM
Kd (HLA-A*32:01; [3]): ≥ 39900 nM
Kd (HLA-A*30:01; [3]): ≥ 70400 nM
Kd (HLA-A*30:02; [3]): 206 nM
Kd (HLA-A*29:02; [3]): 837 nM
Kd (HLA-A*01:01; [3]): 12300 nM

EMVMCGGSLY
Kd (HLA-A*26:01; [4]): 19.9 nM
Kd (HLA-A*24:02; [4]): ≥ 70300 nM
Kd (HLA-A*30:02; [4]): 38.1 nM
Kd (HLA-A*29:02; [4]): 13.9 nM
Kd (HLA-A*01:01; [4]): 468 nM
Kd (HLA-A*23:01; [4]): ≥ 70000 nM

EYADVFHLY
Kd (HLA-A*26:01; [4]): 27.7 nM
Kd (HLA-A*24:02; [4]): 784 nM
Kd (HLA-A*30:02; [4]): 10.8 nM
Kd (HLA-A*29:02; [4]): 48.8 nM
Kd (HLA-A*01:01; [4]): ≥ 26200 nM
Kd (HLA-A*23:01; [4]): 176 nM

GSAKLQWFVE
Kd (HLA-A*32:01; [5]): ≥ 69900 nM

GYLKPTTFML
Kd (HLA-A*26:01; [4]): ≥ 69700 nM
Kd (HLA-A*24:02; [4]): 103 nM
Kd (HLA-A*30:02; [4]): 5130 nM
Kd (HLA-A*29:02; [4]): 1020 nM
Kd (HLA-A*01:01; [4]): ≥ 28400 nM
Kd (HLA-A*23:01; [4]): 33.6 nM

IRWYISLSF
Kd (HLA-A*32:01; [1]): 1170 nM

ITANPIVTD
Kd (HLA-A*32:01; source organism: Dengue virus 1 Brazil/97-11/1997): 2420 nM

KRIAPMLYK
Kd (HLA-B*27:05): 40.7 nM
Kd (HLA-B*48:01; source organism: Orthohantavirus hantanense): ≥ 20000 nM

KTIYLLSLF
Kd (HLA-A*32:01; [6]): 10.3 nM

KVNTTIARY
Kd (HLA-A*26:01; [7]): 7460 nM
Kd (HLA-A*32:01; [7]): 634 nM
Kd (HLA-A*30:01; [7]): 934 nM
Kd (HLA-A*30:02; [7]): 5.93 nM
Kd (HLA-A*29:02; [7]): 100 nM
Kd (HLA-A*01:01; [7]): 1630 nM

LEFFMMVLL
Kd (HLA-A*32:01; [5]): 2040 nM
Kd (HLA-B*40:01; [5]): 13.1 nM
Kd (HLA-B*44:02): 10100 nM
Kd (HLA-B*44:03): 2640 nM

LEFFMMVLLI
Kd (HLA-B*40:01; [5]): 12200 nM
Kd (HLA-B*44:03): 9210 nM

LLFLEDVEP
Kd (HLA-A*02:01; source organism: Horsepox virus): ≥ 20000 nM

LYEQVVMDY
Kd (HLA-A*26:01; [4]): ≥ 22600 nM
Kd (HLA-A*24:02; [4]): ≥ 40500 nM
Kd (HLA-A*30:02; [4]): 173 nM
Kd (HLA-A*29:02; [4]): 12.2 nM
Kd (HLA-A*01:01; [4]): 15100 nM
Kd (HLA-A*23:01; [4]): ≥ 58200 nM

MLMNHVANF
Kd (HLA-A*32:01; [6]): 8.28 nM
Kd (HLA-B*08:01): 3.33 nM

MLVSQALNSV
Kd (HLA-A*02:01; [1]): 3.4 nM
